Test [1] concerns the target T1, full-length mouse His6-αE-catenin (WT) (mouse, UniProt P26231 1-906).
T1 sequence (looked up): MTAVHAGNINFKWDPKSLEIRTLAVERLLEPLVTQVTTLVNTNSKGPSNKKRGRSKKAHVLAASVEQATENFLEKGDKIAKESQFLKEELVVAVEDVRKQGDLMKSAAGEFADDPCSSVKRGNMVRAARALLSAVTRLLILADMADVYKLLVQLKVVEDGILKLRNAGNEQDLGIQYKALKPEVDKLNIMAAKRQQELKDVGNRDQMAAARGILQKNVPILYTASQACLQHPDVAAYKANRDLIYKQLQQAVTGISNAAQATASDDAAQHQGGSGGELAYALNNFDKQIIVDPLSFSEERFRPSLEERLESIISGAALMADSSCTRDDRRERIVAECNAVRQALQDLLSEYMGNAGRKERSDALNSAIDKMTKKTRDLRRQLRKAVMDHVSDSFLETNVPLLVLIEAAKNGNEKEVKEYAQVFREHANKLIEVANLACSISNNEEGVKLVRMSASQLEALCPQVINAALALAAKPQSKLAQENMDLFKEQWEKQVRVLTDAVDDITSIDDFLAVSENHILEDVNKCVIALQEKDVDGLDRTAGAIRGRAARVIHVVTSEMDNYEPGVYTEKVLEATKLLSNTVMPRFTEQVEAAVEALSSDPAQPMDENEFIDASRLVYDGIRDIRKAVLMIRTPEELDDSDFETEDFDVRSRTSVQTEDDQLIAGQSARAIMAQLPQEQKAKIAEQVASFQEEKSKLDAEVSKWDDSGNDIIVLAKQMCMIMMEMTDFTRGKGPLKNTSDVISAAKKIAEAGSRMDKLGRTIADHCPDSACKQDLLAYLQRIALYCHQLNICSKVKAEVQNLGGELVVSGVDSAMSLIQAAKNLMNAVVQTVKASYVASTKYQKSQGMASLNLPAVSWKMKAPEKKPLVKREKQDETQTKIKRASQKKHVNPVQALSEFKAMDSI
Nature of the test: BLI.

The target in test [2] is T2, full-length mouse His6-αE-catenin R551A (mouse, UniProt P26231 1-906, R551A).
T2 sequence (looked up): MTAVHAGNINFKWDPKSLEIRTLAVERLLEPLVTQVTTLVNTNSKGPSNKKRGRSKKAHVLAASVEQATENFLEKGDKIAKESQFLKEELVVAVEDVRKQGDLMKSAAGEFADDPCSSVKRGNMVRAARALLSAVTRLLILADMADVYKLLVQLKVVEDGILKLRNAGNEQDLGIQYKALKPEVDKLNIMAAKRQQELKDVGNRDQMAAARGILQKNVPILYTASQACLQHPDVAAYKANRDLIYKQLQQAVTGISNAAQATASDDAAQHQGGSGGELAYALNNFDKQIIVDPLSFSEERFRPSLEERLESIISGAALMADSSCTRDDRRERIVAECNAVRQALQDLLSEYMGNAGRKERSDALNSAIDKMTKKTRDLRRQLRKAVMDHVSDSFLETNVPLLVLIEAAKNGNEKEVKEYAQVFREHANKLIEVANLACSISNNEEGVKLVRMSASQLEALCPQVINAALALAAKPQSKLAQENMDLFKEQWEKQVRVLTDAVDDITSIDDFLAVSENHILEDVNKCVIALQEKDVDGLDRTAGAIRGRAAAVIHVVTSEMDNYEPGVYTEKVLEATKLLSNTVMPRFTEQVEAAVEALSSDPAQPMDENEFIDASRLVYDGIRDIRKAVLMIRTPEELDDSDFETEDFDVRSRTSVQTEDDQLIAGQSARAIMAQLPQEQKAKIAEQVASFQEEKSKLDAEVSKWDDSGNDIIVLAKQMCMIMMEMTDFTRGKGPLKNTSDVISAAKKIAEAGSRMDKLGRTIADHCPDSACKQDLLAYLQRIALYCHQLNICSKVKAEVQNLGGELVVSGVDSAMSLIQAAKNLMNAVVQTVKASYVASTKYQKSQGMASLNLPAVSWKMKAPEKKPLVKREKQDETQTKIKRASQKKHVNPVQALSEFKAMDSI
Nature of the test: BLI.

B1: constitutively active vinculin head domain (VHD, residues 1-252) (domain or fragment, human, UniProt P18206 1-252, looked up)
chain: MPVFHTRTIESILEPVAQQISHLVIMHEEGEVDGKAIPDLTAPVAAVQAAVSNLVRVGKETVQTTEDQILKRDMPPAFIKVENACTKLVQAAQMLQSDPYSVPARDYLIDGSRGILSGTSDLLLTFDEAEVRKIIRVCKGILEYLTVAEVVETMEDLVTYTKNLGPGMTKMAKMIDERQQELTHQEHRVMLVNSMNTVKELLPVLISAMKIFVTTKNSKNQGIEEALKNRNFTVEKMSAEINEIIRVLQLTS
Turning to B1, the Kd in test [1] amounted to 1800 nM; in test [2], 140 nM.

For the origin of these results see paper PMC5909925 (Molecular Biology of the Cell, 2018).
